Assay results: a protein production outcome set (Wang et al. 2014)

Assay: label from the status in PepcDB records
In the case of “MATEISTRGRQRAIGHEEYSLYSSLSEEELLQMAIEQSLADKTRGPTPAEASASSQTNHQPGHFHPWTRSPSSPENPPARAPLGLFQGVMQKYSSNLFKTSQMAAMDPVLKAIKEGDEEALKIMIQDGKNLAEPNKEGWLPLHEAAYYGQLGCLKVLQQAYPGTIDQRTLQEETALYLATCREHLDCLLSLLQAGAEPDISNKSRETPLYKACERKNAEAVRILVRYNADANHRCNRGWTALHESVSRNDLEVMEILVSGGAKVEAKNVYSITPLFVAAQSGQLEALRFLAKHGADINTQASDSASALYEASKNEHEDVVEFLLSQGADANKANKDGLLPLHVASKKGNYRIVQMLLPVTSRTRVRRSGISPLHLAAERNHDAVLEALLAARFDVNAPLAPERARLYEDRRSSALYFAVVNNNVYATELLLLAGADPNRDVISPLLVAIRHGCLRTMQLLLDHGANIDAYIATHPTAFPATIMFAMKCLSLLKFLMDLGCDGEPCFSCLYGNGPHPPAPRPGRFHDAPVDDKAPSVVQFCEFLSAPEVSRWAGPIIDVLLDYVGNVQLCSRLKEHIDSFEDWAVIKEKAEPPRPLAHLCRLRVRKAIGKYRIKLLDTLPLPGRLIRYLKYENTQ”, the protein production is reported as “failed”. For “MATFFSLALYAGSFTFILREGGIPFYYLGVFFAIAVILYLIFNSLSREYVGRAGDAIIVPVSILMVAVAFVLVYISQSIPIISVSVALFTVSLIMFYNSTVRNEVSISTNERIFMGGAGLGGFIGLIVAGVFPGKMSVLDSYMAIIMLAVGLAAVFVFFRRPTGRFSIADAFHVFVRPFNSMEKIRTIEKKLLLLAVSLDEIFVWIAIGASFPFVISAGLGSGMSRPAVMFSVAAAIIIGAALVYVFESSNIPATPFFYPVKDLILVAGLLLLSFMYPASYVAGMIFLALLPVAFIGSVRFLKSQFPSSFDFRQITSFFRNPIMVIAPLMGSILWAVSGAMLFLTAMAFAIFALVIGIIVITNPKIFKVSDPYETANN”, the protein production was “failed”. For “MATITRTDRLILVPLTVELEDEAHQIYSDSRIWEHRPQARHTNVRVTRDIIKRTNESWGKKDLGPWGVYLRDRPSEFVGVGGVELIDGKVWDLKYRLRPDLWGNGYATEISNAATLATKRIDDSLPLTARVTTNHPASFRILEKLGLTPVWEGRRVGTEDDPNEPDVRIYSDRPLSDEILEMLKQRP”, the protein production was “failed”. In the case of “MATKSSDSSHKQSPPSFRKSVEIKATHDQFFVWREFLWGGIAGAFGEGMMHPVDTLKTRLQSQIIMNATQRQKSILQMLRTVWVGDGLKGFYRGIAPGVTGSLATGATYFGFIESTKKWIEESHPSLAGHWAHFIAGAVGDTLGSFIYVPCEVIKQRMQIQGTSSSWSSYISRNSVPVQPRGDMYGYYTGMFQAGCSIWKEQGPKGLYAGYWSTLARDVPFAGLMVVFYEGLKDLTDQGKKKFPQYGVNSSIEGLVLGGLAGGLSAYLTTPLDVVKTRLQVQGSTIKYASYKGWLDAVGQIWRKEGPQGFFRGSVPRVMWYLPASALTFMAVEFLRDNFREKSNNNNNVVSNLSIERKTSSTSVHEG”, the protein production is reported as “failed”. In the case of “MATLNKALTRPAAIAGIPIVPFVIVSGAIVLLSVYLSYYLVLLLIPAWLEMKAKARTDIHYFGLLWLAFKTRGRFATNKYFGANAMLANRYDAVDVSEFIEKMKLNERVTLDKHIPYSSHVHPQVIRNRHGDLVSTWELGGTVFECEDEHHLTLMATHLNNVIRSYEGLPITFYLHRIREKYQDAFAASSGIPFSDDVTALYYQPIKEKPLWRHRLFFTLCYAPFSRLEKKAMKAQPSGKRTAALDGALKVMLEHRAALASALSRYTATPLGVYEENGRVYSSQLSFYHRLLTGQWQKVAVTRSPFYDILSTPDVFFTTDTAECQTVSGSRFFRSLEIKDYSPDTATGLLDALLYAESEYVMTQSFTCMARDEAQNHIRLAEKRLNSAADDAISQREELIVLRDLLQSGHVSCGKYHFSLLVSSDSADQVVKDVNALAQPFADLGIMTTLSTLSLPAAYLAQLPGVYTLRPRLVAVSSQNFADMASLHNFHPHKRNGNPWGEAITIMTSPGGGGYYLNLHDSQAGRDDFNEKTPGNTAIIGKTGSGKTMLMTVMQQLMQKYRNPATFSESAPHKRLSTVYFDKDRAAEMAIRQMGGRYFRLRTGVPTGFNPFALAPTKRNISFIKRLVRMLCRRNSKPLDPRDEERISTAVDTIMLDYPPEYRRYGITRLLEVLPEPPTKEARTNGLRIRLKQWAQGGEFGWVFDNETDTFDISDIDNVGIDGTEFLDDDDIRGPITFYLLYRVTGLLDGRRLVMFMDEFWKWLADVEFSRFSLNMLKVIRKLNGIFIPATQSPDEIVRHPIAPAIIEQCGTQIFLANPKASRADYVEKMKVPDSVYDIVRHLDPGERYMVVLKTPLRAGETRPFVSMAKMDLSGLGKITRMLSGSEDNLKLFDALYQEGMQPDDWKDAFLEIAL”, the protein production is reported as “failed”. For “MATPAYMSITGTKQGLITAGAFTEDSVGNTYQEGHEDQVMVQGFNHEVIIPRDPQSGQPTGQRVHKPVVITKVFDKASPLLLAALTSGERLTKVEIQWYRTSAAGTQEHYYTTVLEDAIIVDIKDYMHNCQDPGNAHFTHLEDVHFTYRKITWTHEVSGTSGSDDWRSPVAG”, the protein production was “not failed”. With “MATPKLEIGVIGLGKFGLQVSRTLVELGHSVVGIDSTEGRIRQAQDILSQVYQGNAADPAVLQQLRFQDLDCVIVSVGNSMETSLLVTLNLQEIGVRKIWVKAVSTEHKKVLTRLGVDHVILPEHDVATHLAHRLVNPGMLDLLPLGGGGQILLQELTVDKWAGRTLLDLRLANEHGVMVVAVKPAAFREYRFVPAAHEVLQQGDKLVVIGRHEDVLRLEP” the protein production was “failed”. With “MATPVVTKTAWKLQEIVAHASNVSSLVLGKASGRLLATGGDDCRVNLWSINKPNCIMSLTGHTSPVESVRLNTPEELIVAGSQSGSIRVWDLEAAKILRTLMGHKANICSLDFHPYGEFVASGSQDTNIKLWDIRRKGCVFRYRGHSQAVRCLRFSPDGKWLASAADDHTVKLWDLTAGKMMSEFPGHTGPVNVVEFHPNEYLLASGSSDRTIRFWDLEKFQVVSCIEGEPGPVRSVLFNPDGCCLYSGCQDSLRVYGWEPERCFDVVLVNWGKVADLAICNDQLIGVAFSQSNVSSYVVDLTRVTRTGTVTQDPVQASQPQTQQTPNPGVSLRRIYERPSTTCSKPQRVKHNSESERRSPSSEDDKDERESRAEIQNAEDYNEIFQPKNSISRTPPRRSEPFPAPPEDDIATAKEASKPSPAMDVQLPVPSQEVPARPSVMTSTPAPKGEPVIIPATRNEPIGLKASDFLPAVKVPQQAELVDEDAMSQIRKGHDTMCVVLTSRHKNLDTVRAVWTTGDIKTSVDSAVAINDLSVVVDLLNIVNQKASLWKLDLCTTVLPQIEKLLQSKYESYVQTGCTSLKLILQRFLPLITDILAAPPSVGVDISREERLHKCRLCFKQLKSISGLVKSRSGLSGRHGSAFRELHLLMASLD” the protein production was “failed”. With “MATRGSRSEKVKRIFQQFDGNHDGGLNREEMAALVVAVNPRVKFSDEQINAILDEVFRTYAEFIDPNKGLTYDGLLRTYDDGAGDVDRDFDALGLELNADETTIKGSEAASSSSITDERAVEAQKKQRTAAWAVSPNHGIVFDETWKLVDDLEILVKRLKSKQEKDGKLKADNNNNNVDAFSDAGWSRELGPSSEISEKRIYWEESSHDYGVFVKELGVLRSKADGARSREEAFDGHMAIGRVLYEHQLFKEALVSFKRACELQPTDVRPHFKAGNCLYVLGKCKESKDEFLLALEAAESGGNQWAYLLPQIYVNLGIALEGEGMVLSACEYYREAAILCPTHFRALKLLGSALFGVGEYRAAVKALEEAIYLKPDYADAHCDLASSLHSMGEDERAIEVFQRAIDLKPGHVDALYNLGGLYMDLGRFQRASEMYTRVLTVWPNHWRAQLNKAVSLLGAGETEEAKRALKEALKLTNRVELHDAISHLKHLQKKKGKNNGNGNGGEGPFIVVEPSKFKTVGEKTTLRPDLATALQIRAFQRVTRLGKCDVEAVRKEMRDNDVPVSYSGSGGPTKSIRKPNLEEILRRLLSSLKPDTFQGAIKAINEKILALLDDSGSGRVDMGMFYAVIAPLCGGHSDKRKRVAFDALLWRPVNEGSSQITKTDAVKYIKLLRAIYIPSHGMSEMLEVHGEEEAESSVTVTFNQFLAMFDDPDWGFGIMSTILKLEANDRNRHGNQVCSVCRYPVIGSRFKEVKARFSLCNQCYGEGKVPPSFKQEEYKFREYESEAEAMKAKCVCFSMQSHKKAIAT” the protein production was “failed”. For “MATRPKTIWESFLSPVVRFLMDEDKWRRYAQSIDWEKESDRFRRTDVIIPSYYTSQNFHGIEGGYLNSSAAVTYDPITEYVLPPNETLVRQALIDGVKVQPRRILDLGCGTGSTTLMLKQAFPQADVIGLDLSPYMLVRAEDKARTADLDISWRHGNAEKTSFPNASFDLVTTSLLFHETPVEVSQTILQECFRLLVAGGQVIILDGNQKSLRQLNWLNDIFEEPYIREYAADNLDARMGAAGFVGVQTEDLWLIHQVTSGIKPILATDTNQIKDRQYMPAIDNNNLEGLESPAFGIVALEHHHHHH”, the protein production was “failed”. For “MATVERAMMLKTMRKHGVTLALFAAGSTGLTAAINELTKSTIDQQAALQQKALFDQVLPADRYNNDLLKSCYLVSAPALGKGQHKVWIAKNNDRPIGAVMEATAPDGYSGAIQLLVAADFSGTVLGTRVTEHHETPGLGDKIELRLSDWITHFAGKVIHGQGDSHWAVKKDGGDFDQFTGATITPRAVVNAVKRAGLYAQTLPAQLPEFTACGE”, the protein production was “failed”. For “MATYNYPEFGAGLWHFANYIDRYAVDGYGPALSTIDQINAAKEVGELSYVDLPYPFTPGVTLSEVKDALKDAGLKAIGITPEIYLQKWSRGAFTNPDPAARAAAFELMHESAGIVRELGANYVKVWPGQDGWDYPFQVSHKNLWKLAVDGMRDLAGANPDVKFAIEYKPREPRVKMTWDSAARTLLGIEDIGLDNVGVLLDFGHALYGGESPADSAQLIIDRGRLFGMDVNDNLRGWDDDLVVGTVHMTEIFEFFYVLKINNWQGVWQLDQFPFRENHVEAAQLSIRFLKHIYRALDKLDIPALQAAQEAQNPLQAQRIVQDALLSSITVSE”, the protein production was “not failed”. With “MAVDVPGIISPKTAEAASQLTDGIGGRAYLNSNGAILVTKIQLPSSTQVSNGTAYIYSGFSGGTESDIGFQYSDKYNVWKPYMKVGSKGQDQVQYLEGGSQFTNTKGFRPGSTVQLTIYKNLNGNTRATYWGTNNAGYNGRLISEISKTNVGSISKWKALATVATTGSRQSIKSNFSTSFTNITIDNKAITPVIDTQDFAKVTVSGNSVSLSVVKNLEHHHHHH” the protein production was “not failed”. In the case of “MAVECIKDKVTRYPERASYSDEDLVAMLDRNFTCTVSFIDGGIPYAIPMMLASEGKTIYLHGSMKSRIYGILKTGQLIAISLLEINGIVLAKEIKNNSINYVSALIFGRPYEIDDTEKKIEVFRLLTEKLVKGRRDNSIKPSYEDLNGVFVFAVKPETFSMKARTGPPHDTSTDDIWSGVLPIQHTISEAGENAPEYVKSLYGKRIFI”, the protein production is reported as “not failed”. With “MAVERPGYLRIAAELRKRISSGEFGIGDQIPTLPALAEEYGVLETTVRNALALLRNEGLIETRARAGTRVRERPPIHRLTADRYRNKAGVPSTPFTRDQGIGWSEYRLDKKYEQVEATMELAALFECEVGEPLLARHFVFHDNDQPTQMSVSYLRWSDVEGSPVADPIHEPWPGGTQAQLASIGIRVTEITESFTCGMPTDHESKTLKIGSGVPVLRYTRRHIAEDGRIVEVAHPIVRRGDTTVVDFVIKLD” the protein production was “failed”.
